16 molecules from patent publication US20210371530A1 (Merck Sharp & Dohme, published 2021) can be followed below.

One assay addresses human PD-1 on cells (human, UniProt Q15116 25-288). In words: cell-based or functional assay.
In assay [1] the target is T1, polyhistidine-tagged human PD-1 (hPD1-His, 98AFK) (human, UniProt Q15116 25-167, limits assumed).
T1 construct: Lot 98AFK; also called human PD1-His; Human PD-1-His; not shown: polyhistidine tag
Kind of assay: SPR solution affinity; reference Humanized 08A IgG4 S61N (98AIO). As for the experimental part:
The titration series were incubated for 16-24 hours to reach equilibrium at room temperature. The unbound sites were measured using a BIAcore chip immobilized with antigen in a competition mode where SPR signal detected corresponded to unbound antibody.
The titration series following >16 hr. incubation were injected over the sensor chip immobilized with hPD1-His (above). Free, unbound antibodies concentrations were measured as proportional to RU after 120 seconds (for 500 pM mAb series) or 400 seconds (for 100 pM mAb series) of injection at 10 μL/min. After each cycle, surfaces were regenerated with a 30 second injection of 1:1 mixture of 3M MgCl2 and pH 2.0 10 mM glycine at 30 μL/min
Data analyses were performed using KINEXA Pro Version 1.02 (Sapydyne) where RUs were normalized and plotted against concentrations.

The target of assay [2] is T1, polyhistidine-tagged human PD-1 …. Kind of assay: SPR capture format; reference Mouse 08A. As for the experimental part: A surface plasmon resonance (SPR)-based assay utilizing capture mode was used to determine the binding kinetics and affinities of anti-PD-1 antibodies against polyhistidine-tagged human PD-1 (hPD1-His, 98AFK). Following manufacture instructions, a series S sensor chip CM5 (GE Healthcare, BR100530) was activated using an amine-coupling kit (GE Healthcare, BR100050). Either human capture kit (anti-human Fc, 25 μg/mL, GE Healthcare, BR100839) or mouse capture kit (anti-mouse Fc, 30 μg/mL, GE Healthcare, BR100838) antibody diluted in the supplied pH 5.0, 10 mM sodium acetate buffer was immobilized onto the activated surface for 7 minutes. After immobilization, surfaces were deactivated with 1M ethanolamine/HCl (pH 8.5) for 7 minutes. The final immoblization levels reached ˜8,000 resonance units (RU) for mouse capture or 12,000 RU for human capture in each of the four flow cells.
Binding kinetics were measured on a biacore T200 in HBS-EP+(0.01 M HEPES pH 7.4, 0.15 M NaCl, 3 mM EDTA, 0.05% v/v Surfactant P20) running buffer at 25° C. Antibodies were captured either on mouse or human Fc capture surfaces at 10 μL/min flow rate. Antibodies were captured on flow cells 2, 3 and 4. Flow cell 1 was used as a reference with no antibody captured. A 6-point, 2-fold serial dilutions of the analyte 98AFK (hPD1-His), starting at 20 nM, were prepared in the running buffer (HBS-EP+). Two buffer blanks were included for double referencing. Titration series were injected for 3 minutes at 50 μl/min followed by 600 seconds of dissociation. After each cycle, surfaces were regenerated with a 30 second injection of 3M MgCl2 at […] on the anti-human Fc chip or 180 seconds of 10 mM Glycine pH 1.7 at 10 μl/min on the anti-mouse Fc chip.
Sensorgram processing and data analysis were performed with Biacore T200 Evaluation Software Version 2.0.4 (GE Healthcare). […] Processed curves were globally fitted to a 1:1 binding model to determine the association rate constant, kₒₙ (M⁻¹s⁻¹, where “M” equals molar and “s” equals seconds) and the dissociation rate constant, koff (s⁻¹). These rate constants were used to calculate the equilibrium dissociation constant, KD (M)=koff/kₒₙ.

Substitutions are numbered along the chain they refer to. Numbers in names are those of the source.

Sequence of human PD-1 on cells (Q15116 25-288): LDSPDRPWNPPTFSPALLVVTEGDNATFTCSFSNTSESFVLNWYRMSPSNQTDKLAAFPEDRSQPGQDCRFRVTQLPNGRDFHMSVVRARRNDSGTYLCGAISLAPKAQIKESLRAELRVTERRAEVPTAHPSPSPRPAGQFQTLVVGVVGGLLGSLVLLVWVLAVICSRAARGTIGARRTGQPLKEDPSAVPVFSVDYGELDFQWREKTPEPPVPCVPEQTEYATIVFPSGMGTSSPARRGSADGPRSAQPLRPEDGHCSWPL
T1 sequence (Q15116 25-167 limits assumed): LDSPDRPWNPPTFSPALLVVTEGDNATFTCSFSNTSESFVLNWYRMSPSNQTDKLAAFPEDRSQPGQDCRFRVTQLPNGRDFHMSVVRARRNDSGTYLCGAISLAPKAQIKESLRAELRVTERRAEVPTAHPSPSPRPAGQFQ

B1: Anti-PD-1/LAG3 bispecific antibody 90ASU (bispecific antibody, human IgG1, kappa, L234A L235A)
heavy 1: not shown
light 1: DIVMTQTPLSLSVTPGQPASISCRASKSVSTSGFSYLHWYLQKPGQPPQLLIFLASNLESGVPDRFSGSGSGTDFTLKISRVEAEDVGVYYCQHSWELPLTFGQGTKLEIKRTVAAPSVFIFPPSDERLKSGTASVVCLLNNFYPREAKVQWKVDNALQSGNSQESVTEQDSKDSTYSLSSRLTLSKADYEKHKVYACEVTHQGLSSPVTKSFNRGEC
heavy 2: QMQLVQSGPEVKKPGTSVKVSCKASGYTFTDYNVDWVRQARGQRLEWIGDINPNDGGTIYAQKFQERVTITVDKSTSTAYMELSSLRSEDTAVYYCARNYRWFGAMDHWGQGTTVTVSSASTKGPSVFPLAPSSKSTSGGTAALGCLVKDYFPEPVTVSWNSGALTSGVHTFPAVLQSSGLYKLSSVVTVPSSSLGTQTYICNVNHKPSNTKVDKKVEPKSCDKTHTCPPCPAPEAAGGPSVFLFPPKPKDTLMISRTPEVTCVVVSVSHEDPEVKFNWYVDGVEVHNAKTKPREEQYNSTYRVVSVLTVLHQDWLNGKEYKCKVSNKALPAPIEKTISKAKGQPREPQVYVLPPSRDELTKNQVSLLCLVKGFYPSDIAVEWESNGQPENNYLTWPPVLDSDGSFFLYSKLTVDKSRWQQGNVFSCSVMHEALHNHYTQKSLSLSPG
light 2: DIVMTQTPLSLSVTPGQPASISCKASQSLDYEGDSDMNWYLQKPGQPPQLLIYGASNLESGVPDRFSGSGSGTDFTLKISRVEAEDVGVYYCQQSTEDPRTFGGGTKVEIKRTVAAPSVFIFPPSDEELKSGTATVVCLLNNFYPREAKVQWKVDNALQSGNSQESVTEQDSKDSTYSLSSYLELSKADYEKHKVYACEVTHQGLSSPVTKSFNRGEC
As for B1, the “AVG EC50 (nM), IL-2 luciferase reporter, Jurkat.hPD-1.IL2luc + THP-1.PD-L1 assay” value (shortened to “AVG EC50 (nM), IL-2 luciferase reporter”) with human PD-1 on cells stood at 2.54 nM.

B2: Humanized 08A IgG4 S61N (lot 98AIO) (antibody)
heavy: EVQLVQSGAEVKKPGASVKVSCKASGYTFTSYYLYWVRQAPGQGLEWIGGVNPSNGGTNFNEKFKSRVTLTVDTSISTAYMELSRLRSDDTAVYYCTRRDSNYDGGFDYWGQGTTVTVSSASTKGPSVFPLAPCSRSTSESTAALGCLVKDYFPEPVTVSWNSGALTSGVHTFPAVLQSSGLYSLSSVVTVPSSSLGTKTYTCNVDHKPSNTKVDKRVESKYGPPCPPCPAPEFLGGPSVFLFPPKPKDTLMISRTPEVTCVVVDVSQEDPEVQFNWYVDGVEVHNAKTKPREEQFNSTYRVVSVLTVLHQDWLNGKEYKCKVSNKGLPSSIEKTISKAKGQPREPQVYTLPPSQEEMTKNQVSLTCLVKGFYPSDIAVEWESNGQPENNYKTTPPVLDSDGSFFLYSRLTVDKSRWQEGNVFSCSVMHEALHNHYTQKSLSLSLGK
light: B1 light 1 with R128Q, R182T
notes: IgG4 S228P / kappa; also called 08A/HuPD1A-11 S61N S228P corrected IgG4 / Kappa
B2: the “KD (REF) / KD” value turned out to be 1 ratio in assay [1] and 4.4 ratio in assay [2].

B3: Humanized 08A IgG4 S61N (lot 67AGG) (antibody)
heavy: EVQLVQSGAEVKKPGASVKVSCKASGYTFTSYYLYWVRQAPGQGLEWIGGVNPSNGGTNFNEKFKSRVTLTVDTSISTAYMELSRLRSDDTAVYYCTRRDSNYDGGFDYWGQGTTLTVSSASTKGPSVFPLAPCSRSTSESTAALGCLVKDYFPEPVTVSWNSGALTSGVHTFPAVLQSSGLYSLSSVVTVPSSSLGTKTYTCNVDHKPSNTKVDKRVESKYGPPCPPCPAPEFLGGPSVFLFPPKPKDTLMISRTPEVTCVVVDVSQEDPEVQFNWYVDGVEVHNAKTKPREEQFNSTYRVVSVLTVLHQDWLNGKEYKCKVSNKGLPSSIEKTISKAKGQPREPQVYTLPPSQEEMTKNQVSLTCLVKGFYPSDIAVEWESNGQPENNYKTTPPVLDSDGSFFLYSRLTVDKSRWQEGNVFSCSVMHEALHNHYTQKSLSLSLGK
light: B1 light 1 with R128Q, R182T
notes: IgG4 S228P / kappa; differs from 98AIO by an HFR4 mutation; also called 08A/HuPD1A-11 S61N WT S228P IgG4 / Kappa, with HFR4 mutation
Consider B3, for which, in assay [2], the “KD (REF) / KD” value amounted to 5.2 ratio.

B4: Humanized 08A IgG4 S61N G56A (antibody, V domains shown)
VH: EVQLVQSGAEVKKPGASVKVSCKASGYTFTSYYLYWVRQAPGQGLEWIGGVNPSNAGTNFNEKFKSRVTLTVDTSISTAYMELSRLRSDDTAVYYCTRRDSNYDGGFDYWGQGTTVTVSS
VL: DIVMTQTPLSLSVTPGQPASISCRASKSVSTSGFSYLHWYLQKPGQPPQLLIFLASNLESGVPDRFSGSGSGTDFTLKISRVEAEDVGVYYCQHSWELPLTFGQGTKLEIKR
notes: IgG4 S228P / kappa; also called 51AQK; 08A/HuPD1A-11 S61N VH G56A IgG4 S228P / Kappa
For the molecule B4, the “KD (REF) / KD” value worked out at 1 ratio in assay [1] and 4.2 ratio in assay [2].

B5: Humanized 08A IgG4 G56A (antibody, V domains shown)
VH: B4 VH with N61S
VL: B4 VL
notes: IgG4 S228P / kappa; also called 89AVZ; 08A/HuPD1A-11 G56A IgG4 S228P / Kappa
Consider B5, for which the “KD (REF) / KD” value in assay [1] is 0.6 ratio; in assay [2], 2.4 ratio.

B6: Anti-PD-1/LAG-3 bispecific antibody 18ASS (bispecific antibody, human IgG1, kappa, L234A L235A)
heavy 1: not shown
light 1: B1 light 1 with A55S, S56K, N57Y, L58R, E59S, Q93S, H94Q, S95A, W96Y, E97H
heavy 2: B1 heavy 2
light 2: B1 light 2
With B6, the “AVG EC50 (nM), IL-2 luciferase reporter” value with human PD-1 on cells turned out to be 0.55 nM.

B7: Humanized 08A IgG4 (antibody, V domains shown)
VH: B4 VH with A56G, N61S
VL: B4 VL
notes: IgG4 S228P / kappa, no CDRH2 corrections; also called 73AGG; 08A/HuPD1A-11 S228P IgG4 / Kappa
As to B7, the “KD (REF) / KD” value in assay [2] was 1.7 ratio.

B8: Humanized 08A IgG4 Fab 098 G56A (antibody, V domains shown)
VH: B4 VH with N61S, D100L, N102H
VL: B4 VL
notes: IgG4 S228P / kappa; also called 90AVZ
With B8, the “KD (REF) / KD” value in assay [1] turned out to be 1.7 ratio; in assay [2] it was 3 ratio.

B9: Humanized 08A IgG4 S61N N55E (antibody, V domains shown)
VH: B4 VH with N55E, A56G
VL: B4 VL
notes: IgG4 S228P / kappa; also called 50AQK; 08A/HuPD1A-11 N55E S228P IgG4 / Kappa
In the case of B9, the “KD (REF) / KD” value in assay [2] was 0.8 ratio.

B10: Fab 00APE (humanized 08A Fab with S61N correction) (Fab, V domains shown)
VH: B4 VH with A56G
VL: B4 VL
For the molecule B10, the “AVG EC50 (nM), IL-2 luciferase reporter” value in the assay with human PD-1 on cells worked out at 3.32 nM.

B11: Humanized 08A IgG4 Fab 100 S61N G56A (antibody, V domains shown)
VH: B4 VH with D100L, N102H
VL: B4 VL with A55S, S56K, N57Y, L58R, E59S, Q93S, H94Q, S95A, W96Y, E97H
notes: also called 25AVE
With B11, the “KD (REF) / KD” value in assay [1] was above 13 ratio; in assay [2], 5.7 ratio.

B12: Mouse 09A (antibody, mouse IgG1, kappa, V domains shown)
VH: QVQLQQPGAELVKPGTSVKLSCKASGYTFTNYYMYWVKQRPGQGLEWIGGINPSNGGTNFNEKFKNKATLTVDSSSSTTYMQLSSLTSEDSAVYYCTRRDYRFDMGFDYWGQGTTLTVSS
VL: DIVLTQSPASLAVSLGQRAAISCRASKGVSTSGYSYLHWYQQKPGQSPKLLIYLASYLESGVPARFSGSGSGTDFTLNIHPVEEEDAATYYCQHSRDLPLTFGTGTKLELKR
notes: Mouse IgG1/kappa; also called 03AFN; Mouse x [PD-1_H] mAb (clone 09A) IgG1 / Kappa
Regarding B12, the “KD (REF) / KD” value in assay [2] was determined as 0.5 ratio.

B13: Mouse 08A (antibody, mouse IgG1, kappa, V domains shown)
VH: QVQLQQPGAELVKPGASVKLSCKASGYTFTSYYLYWMKQRPGQGLEWIGGVNPSNGGTNFSEKFKSKATLTVDKSSSTAYMQLSSLTSEDSAVYYCTRRDSNYDGGFDYWGQGTTLTVSS
VL: B12 VL with A9T, A20T, G28S, Y34F, S47P, Y53F, Y57N, R96W, D97E, T104A
notes: Mouse IgG1/kappa; also called 09AFF; parental mouse 08A antibody
In the case of B13, the “KD (REF) / KD” value in assay [2] turned out to be 1 ratio.

B14: Mouse 08A N59E (antibody, mouse IgG1, kappa, V domains shown)
VH: B13 VH with N59E
VL: B12 VL with A9T, A20T, G28S, Y34F, S47P, Y53F, Y57N, R96W, D97E, T104A
notes: also called 39AFL; Clone 1.08 N59E
On to B14, for which, in assay [2], the “KD (REF) / KD” value is 0.03 ratio.

B15: Mouse 08A N59A (antibody, mouse IgG1, kappa, V domains shown)
VH: B13 VH with N59A
VL: B12 VL with A9T, A20T, G28S, Y34F, S47P, Y53F, Y57N, R96W, D97E, T104A
notes: also called 80AFH; Clone 1.08 N59A
For the molecule B15, in assay [2], the “KD (REF) / KD” value came to 0.4 ratio.

B16: Mouse 08A N59Q (antibody, mouse IgG1, kappa, V domains shown)
VH: B13 VH with N59Q
VL: B12 VL with A9T, A20T, G28S, Y34F, S47P, Y53F, Y57N, R96W, D97E, T104A
notes: also called 38AFL; Clone 1.08 N59Q
Take B16: the “KD (REF) / KD” value in assay [2] stood at 0.04 ratio.
